Experimental data taken from the RNAGym collection of RNA variant scans (doi:10.7554/elife.80360).

B1: Hammerhead Ribozyme (parent)
chain: ACCGGAUGUGCUUUCCGGUCUGAUGAGUCCGUGAGGACGAAACAG

Variants of: B1
Assay: self-cleavage, relative activity (ratio to wild type); higher = more cleavage; co-transcriptional

Compared with U14A A26C, C2A A37C is lower in self-cleavage: 0.47 for the first, 0.376 for the second.

Compared with G17U C29G, C11G G36C is higher in self-cleavage: 0.591 for the first, 0.998 for the second.

Compared with G22U A34C, G8U C11G is higher in self-cleavage: 0.267 for the first, 1.21 for the second.

First: U9G A44G
Second: A34U G45A
The self-cleavage of the first is higher: 1.07 for the first, 0.477 for the second.

Going from C16G A26G to A6C G8C, the self-cleavage rises from 0.289 to 0.916.

First: U12C A44U
Second: G27U G39A
The self-cleavage of the first is higher: 0.725 for the first, 0.341 for the second.

Compared with G33U C43U, A1C A26C is lower in self-cleavage: 0.598 for the first, 0.338 for the second.

Compared with A26C A41U, C2U G22A is higher in self-cleavage: 0.299 for the first, 0.341 for the second.

First: U24C U28A
Second: U19G C29A
The self-cleavage of the first is higher: 0.614 for the first, 0.257 for the second.

First: U9C A23C
Second: A26U C29G
The self-cleavage of the first is lower: 0.283 for the first, 0.475 for the second.

First: G17U A23U
Second: U21G A26C
The self-cleavage of the first is higher: 0.35 for the first, 0.237 for the second.

Going from C20U A37U to U21G A42G, the self-cleavage falls from 0.403 to 0.223.

Compared with U14C A34U, C11U G31C is higher in self-cleavage: 0.67 for the first, 0.937 for the second.

Compared with A6C C29A, G5C U14C is lower in self-cleavage: 0.44 for the first, 0.429 for the second.

Going from G18C U21G to G10U G33U, the self-cleavage rises from 0.285 to 1.05.

First: G25A A42U
Second: G25A A42G
The self-cleavage of the first is higher: 0.333 for the first, 0.242 for the second.

Compared with A23G C38G, G27U C30G is lower in self-cleavage: 0.311 for the first, 0.297 for the second.

Going from G10U A41C to G10U A41U, the self-cleavage falls from 0.422 to 0.358.

Compared with G10C A34G, A6C U19G is lower in self-cleavage: 0.841 for the first, 0.269 for the second.

First: U12C U14C
Second: A40G C43A
The self-cleavage of the first is higher: 0.83 for the first, 0.339 for the second.

Compared with C16U G18U, C2G G31A is lower in self-cleavage: 0.746 for the first, 0.43 for the second.

First: U13A C43A
Second: G10A U24G
The self-cleavage of the first is lower: 0.254 for the first, 0.875 for the second.

First: C3U G4C
Second: A1G G36C
The self-cleavage of the first is lower: 0.3 for the first, 0.654 for the second.

Going from U13G G45U to U13G G45C, the self-cleavage falls from 0.702 to 0.596.

Going from U9G A42G to U9G A42U, the self-cleavage falls from 0.323 to 0.28.

Going from U19C G45U to U14C C43A, the self-cleavage falls from 0.439 to 0.279.

Compared with U14C A23G, A26G U28C is higher in self-cleavage: 0.268 for the first, 0.383 for the second.

First: G10C A26C
Second: U12C C43A
The self-cleavage of the first is higher: 0.447 for the first, 0.278 for the second.

First: U12C G35A
Second: A40C C43U
The self-cleavage of the first is higher: 0.737 for the first, 0.347 for the second.

First: C15U U21C
Second: C15U A23G
The self-cleavage of the first is higher: 0.556 for the first, 0.271 for the second.

Going from G5C A41G to A40U A44U, the self-cleavage rises from 0.27 to 0.336.

Compared with G33A A42G, C2U U21C is higher in self-cleavage: 0.256 for the first, 0.273 for the second.

Going from A37G A40U to A1U G45A, the self-cleavage rises from 0.399 to 0.409.

First: G8A C20G
Second: U7C A37U
The self-cleavage of the first is lower: 0.381 for the first, 0.621 for the second.

Compared with A6C G18A, U14G G35A is higher in self-cleavage: 0.311 for the first, 0.725 for the second.

Going from U7C A44G to G17C A40U, the self-cleavage falls from 1.13 to 0.3.

First: U24A C38U
Second: C3A G4C
The self-cleavage of the first is higher: 0.993 for the first, 0.216 for the second.

Compared with G5A U9C, A37G C38U is lower in self-cleavage: 1.37 for the first, 0.534 for the second.

Compared with A26G A41C, A6G C20A is higher in self-cleavage: 0.338 for the first, 0.4 for the second.

Going from C15U C16U to U9A C38U, the self-cleavage rises from 0.776 to 1.23.

First: U9A U32G
Second: C29U U32G
The self-cleavage of the first is lower: 0.539 for the first, 1.06 for the second.

Compared with U21C C30A, U24G G33A is higher in self-cleavage: 0.494 for the first, 1.18 for the second.

First: C29A C30A
Second: G33U G45C
The self-cleavage of the first is lower: 0.442 for the first, 0.752 for the second.

Compared with U9A U14C, G27A A44G is higher in self-cleavage: 0.73 for the first, 1.07 for the second.

Going from A34U A44G to C16G G27C, the self-cleavage falls from 1.01 to 0.35.

Compared with U14C G27C, A41U A44U is lower in self-cleavage: 0.54 for the first, 0.378 for the second.

Compared with A26C G35A, A6C A37U is higher in self-cleavage: 0.431 for the first, 0.449 for the second.

First: G35A A44U
Second: C15G U19G
The self-cleavage of the first is higher: 0.46 for the first, 0.382 for the second.

Going from U13G U32A to U7A G17U, the self-cleavage falls from 1.01 to 0.524.

Compared with G17A G27C, C15A A26U is higher in self-cleavage: 0.399 for the first, 0.446 for the second.

Going from U9A A23G to C2G C38A, the self-cleavage rises from 0.324 to 0.336.

First: C11G A34U
Second: C11U G36A
The self-cleavage of the first is higher: 1.07 for the first, 0.607 for the second.

Compared with C2U U19G, G5C G35U is higher in self-cleavage: 0.319 for the first, 0.376 for the second.

First: G25C G27C
Second: A1G U14G
The self-cleavage of the first is lower: 0.278 for the first, 1.85 for the second.

Compared with G22C G35A, U19C G27C is lower in self-cleavage: 0.337 for the first, 0.308 for the second.

Compared with U14A G17U, C20G G33U is lower in self-cleavage: 0.564 for the first, 0.367 for the second.

Going from U28A A41U to G17A G18C, the self-cleavage rises from 0.303 to 0.341.

Compared with C11U A37G, A6G G36A is lower in self-cleavage: 1.12 for the first, 0.624 for the second.

Compared with G8C U14G, G8U C30A is lower in self-cleavage: 1.11 for the first, 0.803 for the second.

Compared with C20A A34C, U7C C11A is higher in self-cleavage: 0.34 for the first, 1.37 for the second.

Going from G10C G45C to G17A A41C, the self-cleavage falls from 0.783 to 0.259.

First: A23G G31U
Second: G4U A37U
The self-cleavage of the first is higher: 0.448 for the first, 0.286 for the second.

First: A1C U28A
Second: G5C C43A
The self-cleavage of the first is higher: 0.389 for the first, 0.294 for the second.

First: C2A U12C
Second: G33C A41U
The self-cleavage of the first is higher: 0.5 for the first, 0.459 for the second.

First: U12G C20U
Second: A1C A6C
The self-cleavage of the first is higher: 0.667 for the first, 0.393 for the second.

Compared with A6C A41G, A6G A41U is lower in self-cleavage: 0.374 for the first, 0.273 for the second.

Compared with A1C A23G, U32A A34G is higher in self-cleavage: 0.326 for the first, 0.818 for the second.

Going from C15U to G25C U32A, the self-cleavage falls from 0.912 to 0.298.

Going from G25C U32C to A23U G25A, the self-cleavage falls from 0.342 to 0.267.

First: U14A A44U
Second: U12G U24A
The self-cleavage of the first is lower: 0.417 for the first, 1.13 for the second.

Compared with U13G A41G, U21A G22U is lower in self-cleavage: 0.423 for the first, 0.407 for the second.

First: G17C A23U
Second: A40U C43G
The self-cleavage of the first is higher: 0.326 for the first, 0.287 for the second.

Going from G10C U14C to G35A G36C, the self-cleavage falls from 1.28 to 0.484.

First: C2U A37G
Second: G4C U13C
The self-cleavage of the first is higher: 1.01 for the first, 0.856 for the second.

First: U9G G27U
Second: C15G A44G
The self-cleavage of the first is lower: 0.329 for the first, 0.834 for the second.

First: G22C A40U
Second: U13C G39U
The self-cleavage of the first is lower: 0.342 for the first, 0.419 for the second.

Compared with A1G G39U, G25A A34C is lower in self-cleavage: 0.428 for the first, 0.278 for the second.

Compared with A1U C11G, U9A G18C is lower in self-cleavage: 0.646 for the first, 0.39 for the second.

First: G4U U28C
Second: C3A U13C
The self-cleavage of the first is lower: 0.266 for the first, 0.963 for the second.

Compared with U13C A42C, U13A G22A is lower in self-cleavage: 0.313 for the first, 0.298 for the second.

Going from C16G G33A to U9A G22A, the self-cleavage falls from 0.994 to 0.282.

Going from G22U G36C to C20G A26G, the self-cleavage falls from 0.363 to 0.302.

Going from C38U G39U to G18A G22C, the self-cleavage rises from 0.3 to 0.417.

Variant G4C A42C has a self-cleavage of 0.296.
